We go through two sequences from paper PMC10197177.

Broadly, the Kd is the constant that tells how readily two partners part at equilibrium. Low readings indicate tighter binding, high ones weaker binding.

Holding throughout (test): ELONA
Common to all, as to settings: pH 7.4, room temperature, spike immobilized

Series [1] has as its target Spike protein, Omicron (SARS-CoV-2 (Omicron variant)) (UniProt P0DTC2).
Series [2] concerns the target Spike protein, Alpha (SARS-CoV-2 (Alpha variant)) (UniProt P0DTC2).
The target of series [3] is Spike protein, Beta (SARS-CoV-2 (Beta variant)) (UniProt P0DTC2).
Series [4] deals with Spike protein, Delta (SARS-CoV-2 (Delta variant)) (UniProt P0DTC2).

“ATCTACGAATTCTCCGCCAAGATAGAGGGTGGGCCGCGGAGAATTCACTGC [M40 (truncated working aptamer)]”: the Kd was found to be 0.165 nM in series [1], 0.28 nM in series [2], 0.276 nM in series [3] and 0.187 nM in series [4].
Turning to “AATGGATCCACATCTACGAGCTCGAACGCCCGGAGGAGACGGGGGCAGGGCGTGTTCACTGCAGACTTGACGAAGCT [K1 (truncated working aptamer)]”, the Kd in series [1] was determined as 0.026 nM; in series [2], 0.034 nM; in series [3] it was 0.034 nM; in series [4], 0.037 nM.
